Measured values from article PMC3137622, “Mechanisms of Allergen-Antibody Interaction of Cockroach Allergen Bla g 2 with Monoclonal Antibodies That Inhibit IgE Antibody Binding” (PLoS ONE, 2011).

B1: monoclonal antibody 4C3 (anti-Bla g 2) (antibody, V domains shown)
VH: EVQLVESGGGLVQPGGSLKLSCAASGFTFSSFAMSWGRQTPDKRLELVATINSNGASTYYPDTVKGRFTISRDNAKNTLFLQMSSLKSEDTAMYYCTRDPAGRAWFAYWGQGTLVTVSA
VL: QIVLTQSPSSMYASLGERVTITCKASQDINNYLSWFQQKPGKSPKTLIYRADRLVDGVPSRVSGSGSGQDYSLTISSLEYEDLGIYYCLQYDELPYTFGGGTKLEIK
notes: the Fab of mAb 4C3 stands in PDB 3liz (complex with Bla g 2), heavy chain; the Fab of mAb 4C3 stands in PDB 3liz (complex with Bla g 2), light chain; Whole mAb in the assays; the PDB entry holds only the Fab fragment; also called mAb 4C3; biotinylated mAb 4C3
B2: monoclonal antibody 7C11 (anti-Bla g 2) (antibody, V domains shown)
VH: EIQLQQSGAELVKPGASVKLSCTASGFNIKDTYIHWVKQRPEQGLEWIGRIDPANGNTRYGPKFLGKATITADTSSNTAYLHLNSLTSEDTAVYFCARWVRQMDYWGQGTSVTVSS
VL: DIVMTQSHKFMSTSVGDRVSITCKASQIVSTAVAWYQQKPGQSPKLLIYSASYRYTGVPDRFTGSGSGTDFTFTISSVQAEDLAVYYCQQHYNSPQTFGGGTKLEIK
notes: the Fab' of mAb 7C11 stands in PDB 2nr6 (complex with Bla g 2), heavy chain; the Fab' of mAb 7C11 stands in PDB 2nr6 (complex with Bla g 2), light chain; Whole mAb in the assays; the PDB entry holds only the Fab' fragment; also called mAb 7C11; biotinylated mAb 7C11

Target: T1, natural Bla g 2 (Blattella germanica, UniProt P54958)
T1 construct: Glycosylated natural allergen; also called nBla g 2; natural allergen
T1 sequence (P54958 whole entry, looked up): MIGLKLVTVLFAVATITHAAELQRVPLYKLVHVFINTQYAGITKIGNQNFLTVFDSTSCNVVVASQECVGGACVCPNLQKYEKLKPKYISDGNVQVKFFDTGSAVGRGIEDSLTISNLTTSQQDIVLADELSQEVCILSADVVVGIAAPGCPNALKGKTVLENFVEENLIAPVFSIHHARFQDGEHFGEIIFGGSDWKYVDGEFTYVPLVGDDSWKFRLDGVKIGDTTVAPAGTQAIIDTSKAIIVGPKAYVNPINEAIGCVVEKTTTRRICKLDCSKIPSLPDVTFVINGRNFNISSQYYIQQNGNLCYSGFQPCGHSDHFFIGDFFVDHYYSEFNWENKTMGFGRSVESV
Assay: ELISA; two-site dose-response: mAb 7C11 or 4C3 as capture antibody, allergen titrated, detection with biotinylated mAb 4C3 (21 nM) or 7C11 (4 nM), respectively, or polyclonal antibody (53 nM)
Settings: both partners purified

Binder | binding result
B1 | binds
B2 | binds
